Experimental data published in patent publication US20200149053A1, “MICROORGANISMS PROGRAMMED TO PRODUCE IMMUNE MODULATORS AND ANTI-CANCER THERAPEUTICS IN TUMOR CELLS” (Synlogic Operating Company, Inc., priority 2017, published 2020).

Experiments:
[1] = molecular target: biotinylated-mPD1 (mouse) (UniProt Q02242); assay: whole cell ELISA, scFv displayed on E. coli Nissle, biotinylated mPD1, streptavidin-HRP, TMB
[2] = molecular target: Biotinylated IgG; assay: whole cell ELISA, scFv displayed on E. coli Nissle, biotinylated IgG as negative control, streptavidin-HRP, TMB
[3] = tested on: NK cells; conditions: upon treatment; cited from earlier work
[4] = molecular target: IgG (coating control); assay: ELISA, IgG coated plate, E. coli extract, anti-V5-HRP, TMB
[5] = molecular target: IgG (coating control); assay: ELISA, IgG coated plate, E. coli extract (1/2), anti-V5-HRP, TMB
[6] = molecular target: T1, mCD40 (Mus musculus, UniProt P27512); assay: CD40 ELISA binding assay, plate coated with mCD40; conditions: clarified supernatant; for CD40 ELISA signal, coating material IgG / CD40 ELISA signal, coating material PBS: control coating
T1 sequence (P27512 20-289): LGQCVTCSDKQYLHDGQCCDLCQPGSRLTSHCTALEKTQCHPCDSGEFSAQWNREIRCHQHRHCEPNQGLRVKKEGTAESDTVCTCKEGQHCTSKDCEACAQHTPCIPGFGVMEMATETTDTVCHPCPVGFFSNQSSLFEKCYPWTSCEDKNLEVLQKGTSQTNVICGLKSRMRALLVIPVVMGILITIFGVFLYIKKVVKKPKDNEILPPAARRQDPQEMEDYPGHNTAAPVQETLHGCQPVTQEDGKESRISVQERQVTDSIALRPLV
Experimental: (§1) Cultures were diluted 1:100 in LB and grown shaking (200 rpm) to an optical density of 0.8, at which time the cultures were cooled down to room temperature and anhydrous tetracycline (ATC) was added to cultures at a concentration of 100 ng/mL, to induce expression of mCD40L1 and mCD40L2.
(§2) After 18 hours of induction, cells were spun down, and supernatant was collected. To generate cell free medium, the clarified supernatant was further filtered through a 0.22 micron filter to remove any remaining bacteria and placed on ice.

[7] = tested on: anti-mCD40L antibody; assay: CD40 ELISA binding assay, plate coated with anti-mCD40L antibody; conditions: clarified supernatant
Experimental: as §1, §2

[8] = molecular target: T2, PD1 (Mus musculus, UniProt Q02242); assay: ELISA binding assay of bacterial extracts (J43-scFv); conditions: α-V5-HRP
T2 construct: purchased Rndsystems
T2 sequence (Q02242 25-288): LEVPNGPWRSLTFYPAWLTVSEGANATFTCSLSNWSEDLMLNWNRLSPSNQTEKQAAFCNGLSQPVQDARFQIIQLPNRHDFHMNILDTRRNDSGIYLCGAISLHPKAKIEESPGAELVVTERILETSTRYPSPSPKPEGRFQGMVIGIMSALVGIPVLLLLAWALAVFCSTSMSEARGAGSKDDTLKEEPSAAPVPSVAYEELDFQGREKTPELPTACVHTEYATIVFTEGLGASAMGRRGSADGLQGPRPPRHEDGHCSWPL
Experimental: E. coli comprising either tet-inducible J43-Anti-PD1-scFv-V5 or wild type controls were grown overnight in LB medium. […] Same amount of tetracycline was added to wild type control cultures.

[9] = molecular target: T3, PD1 on mouse EL4 cells (Mus musculus, UniProt Q02242); assay: Flow cytometric analysis of anti-PD1-scFv binding to EL4 cells, PDL1 competition
T3 construct: EL4 are a mouse lymphoma cell line which expresses PD1 on its cell surface; endogenous in cells; host or cells: EL4 (mouse lymphoma)
T3 sequence (Q02242 25-288): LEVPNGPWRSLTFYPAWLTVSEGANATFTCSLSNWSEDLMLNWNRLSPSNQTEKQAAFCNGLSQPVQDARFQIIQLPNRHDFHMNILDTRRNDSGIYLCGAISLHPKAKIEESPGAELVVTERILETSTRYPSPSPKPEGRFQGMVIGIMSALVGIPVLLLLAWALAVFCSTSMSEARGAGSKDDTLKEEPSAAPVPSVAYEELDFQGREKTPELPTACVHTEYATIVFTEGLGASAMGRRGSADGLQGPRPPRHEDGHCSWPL
Experimental: To determine whether anti-PD1-scFv expressed in E. coli binds to surface PD1 on mouse EL4 cells, flow cytometric analysis was performed using EL4 cells. EL4 are a mouse lymphoma cell line which expresses PD1 on its cell surface.
EL4 cells were grown in Dulbecco's Modified Eagle's Medium (DMEM) with 10% FBS. Cells were spun down, supernatant was aspirated, pellet was resuspended in 1 nil D-PBS, transferred into chilled assay tubes (1×10^6 cells), and washed 2-3 times in D-PBS with 0.5% BSA. Cells were resuspended in PBS with 0.5% BSA, to which the purified scFv-V5 and anti-V5-FITC antibody were added and incubated for 1 hour at room temperature. Negative control left out scFv-V5. Cells were resuspended in 0.5 ml PBS and analyzed on a flow cytometer.
EL4 are a mouse lymphoma cell line which expresses PD1 on its cell surface.
EL4 cells were grown in Dulbecco's Modified Eagle's Medium (DMEM) with 10% FBS and 1% Penicillin-Streptomycin Cells were spun down, supernatant was aspirated, pellet was resuspended in 1 ml D-PBS, transferred into chilled assay tubes (1×10^6 cells), and washed 3 times in D-PBS. Cells were resuspended in D-PBS with 0.5% BSA, to which the purified scFv-V5 and anti-V5-FITC antibody were added and incubated for 1 hour at room temperature. Negative control left out secreted J43-scFv-V5. Cells were then resuspended in 0.5 ml PBS and analyzed on a flow cytometer. Results are shown in (FIG. 64).
Next, a competition assay was conducted to determine whether PDL1 could inhibit the binding of the anti-PD1-scFv secreted by the genetically engineered bacteria from binding to murine PD1. EL4 cells were grown and flow cytometry protocol was conducted essentially as described above except that PDL1 was added at various concentrations ([…]) during the incubation of the secreted anti-PD1-scFv-V5. Rat-IgG was used as a negative control of secreted scFv.

[10] = molecular target: T4, recombinant SIRPα (Rndsystems) (mouse, UniProt P97797 32-373); assay: flow cytometry competition on CT26 cells
T4 construct: also called recombinant mSIRPα
T4 sequence (looked up): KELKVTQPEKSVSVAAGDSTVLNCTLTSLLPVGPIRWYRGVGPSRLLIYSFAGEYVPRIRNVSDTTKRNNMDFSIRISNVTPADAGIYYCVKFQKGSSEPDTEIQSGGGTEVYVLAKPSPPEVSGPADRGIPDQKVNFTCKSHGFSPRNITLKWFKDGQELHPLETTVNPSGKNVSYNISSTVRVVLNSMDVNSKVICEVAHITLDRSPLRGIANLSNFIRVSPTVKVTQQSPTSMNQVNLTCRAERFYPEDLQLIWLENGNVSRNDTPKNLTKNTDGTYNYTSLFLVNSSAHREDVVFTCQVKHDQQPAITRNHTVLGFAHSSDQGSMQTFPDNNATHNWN

[11] = molecular target: T5, mouseCD47 (recombinant) (mouse) (UniProt Q61735); assay: ELISA, mCD47 coated plate, bacterial supernatant
T5 sequence (looked up): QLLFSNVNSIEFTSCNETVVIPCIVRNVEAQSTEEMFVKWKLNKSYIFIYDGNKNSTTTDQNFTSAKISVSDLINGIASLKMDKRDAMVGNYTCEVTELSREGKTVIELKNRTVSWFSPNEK

[12] = molecular target: IgG (coating control); assay: ELISA, IgG coated plate, bacterial supernatant
[13] = molecular target: T6, secreted mCD40L1 (47-260) (mouse, UniProt P27548 47-260); assay: ELISA, mCD40 coated plate
T6 construct: range 47-260; also called Secreted CD40-L1; SYN3366 supernatant
T6 sequence (looked up): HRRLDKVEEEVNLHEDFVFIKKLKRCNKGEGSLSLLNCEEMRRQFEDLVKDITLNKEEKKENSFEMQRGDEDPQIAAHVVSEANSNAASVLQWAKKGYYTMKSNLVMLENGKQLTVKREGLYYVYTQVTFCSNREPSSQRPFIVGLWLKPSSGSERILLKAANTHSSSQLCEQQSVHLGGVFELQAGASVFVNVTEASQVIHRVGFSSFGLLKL

LppOmpA-FLAG-J43scFv-V5-HIS displayed on E. coli Nissle SYN2798
OD450 [1]: 0.421 | OD450 [2]: 0.133

recombinant human IL-15: recombinant human IL-15 of a first-in-human clinical trial
expansion of NK cells [3]: 10 fold | proliferation of γδT cells and CD8+ T cells [3]: significantly increased

J43-Anti-PD1-scFv-V5
ELISA signal at 450 nm [4]: 0.13 | ELISA signal at 450 nm [5]: 0.11

B1: Secreted CD40-L1: mCD40L1 (47-260), extracellular portion of mCD40L, secreted by SYN3366 (protein)
chain: HRRLDKVEEEVNLHEDFVFIKKLKRCNKGEGSLSLLNCEEMRRQFEDLVKDITLNKEEKKENSFEMQRGDEDPQIAAHVVSEANSNAASVLQWAKKGYYTMKSNLVMLENGKQLTVKREGLYYVYTQVTFCSNREPSSQRPFIVGLWLKPSSGSERILLKAANTHSSSQLCEQQSVHLGGVFELQAGASVFVNVTEASQVIHRVGFSSFGLLKL
modifications: left off: small tags and cut ends
CD40 ELISA signal, coating material mCD40 [6]: 0.231 | CD40 ELISA signal, coating material IgG [6]: 0.052 | CD40 ELISA signal, coating material PBS [6]: 0.049 | CD40 ELISA signal, coating material Anti-mCD40L [7]: 0.394

B2: J43-scFv-V5: anti-PD1 single-chain variable fragment based on J43 monoclonal antibody, V5 tagged, expressed in E. coli (protein)
scFv: MQLEVRLLESGGGLVKPEGSLKLSCVASGFTFSDYFMSWVRQAPGKGLEWVAHIYTKSYNYATYYSGSVKGRFTISRDDSRSMVYLQMNNLRTEDTATYYCTRDGSGYPSLDFWGQGTQVTVSSGGGGSGGGGSGGGGSYELTQPPSASVNVGETVKITCSGDQLPKYFADWFHQRSDQTILQVIYDDNKRPSGIPERISGSSSGTTATLTIRDVRAEDEGDYYCFSGYVDSDSKLYVFGSGTQLTVLGKGELNSKLEGKPIPNPLLGLDSTRTGHHHHHH
Signal intensity at 450 nm, IgG coating ([8]; bacterial extract (1/2)): 0.11 | Signal intensity at 450 nm, PBS coating ([8]; bacterial extract (1/2)): 0.10 | Signal intensity at 450 nm, mPD1 coating ([8]; bacterial extract (1/2)): 0.90 | Signal intensity at 450 nm, IgG coating ([8]; bacterial extract): 0.13 | Signal intensity at 450 nm, PBS coating ([8]; bacterial extract): 0.11 | Signal intensity at 450 nm, mPD1 coating ([8]; bacterial extract): 1.41 | PDL1 competition against binding to mPD1 on EL4 cells ([9]; PDL1 added at various concentrations): PDL1 competed in a dose dependent manner | binding to surface PD1 on EL4 cells (flow cytometry) ([9]; purified scFv, anti-V5-FITC): population shift is observed | staining of EL4 cells with different amounts of secreted scFv ([9]; secreted scFv, increasing amounts): dose-dependent staining of the EL4 cells was observed | binding to PD1 on EL4 cells (flow cytometry) ([9]; secreted scFv, anti-V5-FITC): population shift is observed

B3: Secreted CD40-L2: mCD40L2 (112-260), soluble form of mCD40L, secreted by SYN3367 (protein)
chain: MQRGDEDPQIAAHVVSEANSNAASVLQWAKKGYYTMKSNLVMLENGKQLTVKREGLYYVYTQVTFCSNREPSSQRPFIVGLWLKPSSGSERILLKAANTHSSSQLCEQQSVHLGGVFELQAGASVFVNVTEASQVIHRVGFSSFGLLKL
modifications: left off: small tags and cut ends
CD40 ELISA signal, coating material mCD40 [6]: 0.639 | CD40 ELISA signal, coating material IgG [6]: 0.052 | CD40 ELISA signal, coating material PBS [6]: 0.05 | CD40 ELISA signal, coating material Anti-mCD40L [7]: 0.825

B4: CD47 on mouse CT26 cells (receptor, UniProt Q61735 19-303, looked up)
chain: QLLFSNVNSIEFTSCNETVVIPCIVRNVEAQSTEEMFVKWKLNKSYIFIYDGNKNSTTTDQNFTSAKISVSDLINGIASLKMDKRDAMVGNYTCEVTELSREGKTVIELKNRTVSWFSPNEKILIVIFPILAILLFWGKFGILTLKYKSSHTNKRIILLLVAGLVLTVIVVVGAILLIPGEKPVKNASGLGLIVISTGILILLQYNVFMTAFGMTSFTIAILITQVLGYVLALVGLCLCIMACEPVHGPLLISGLGIIALAELLGLVYMKFVASNQRTIQPPRNR
notes: whole, on cells; also called murine CD47 on CT26 cells
binding result [10]: binds

B5: secreted anti-mCD47 scFv (scFv, from a related filing)
scFv: QVKLLQSGAALVKPGASVKMSCQASGYSFTDYWVTWVKQSHGQSLEWIGEIYPSNTVTNFNDNFKGKATLTVDKSTSTAYMELSRLTSEDSAIYYCTRIGNSGYRVGWFIYWGQGTLVTVLSGGGGSGGGGSGGGGSDTVLTQSPALAVSPGERVTISCKASESVSSHMHWYQQKPGQQPKLLIYKASNLASGVPARFSGSGSGTDFTLTIDPVEADDTATYFCQQGWNGPFTFGAGTRLELKRADAAGSGELGGSGKPIPNPLLGLDSTGSGHHHHHH
ELISA signal [11]: 0.527 | ELISA signal [12]: 0.067

B6: mCD40 (receptor, mouse, UniProt P27512 24-193, looked up)
chain: VTCSDKQYLHDGQCCDLCQPGSRLTSHCTALEKTQCHPCDSGEFSAQWNREIRCHQHRHCEPNQGLRVKKEGTAESDTVCTCKEGQHCTSKDCEACAQHTPCIPGFGVMEMATETTDTVCHPCPVGFFSNQSSLFEKCYPWTSCEDKNLEVLQKGTSQTNVICGLKSRMR
binding result [13]: binds
